Measured values from FireProtDB.

Conditions: Bos taurus; pH 8; 30 °C; GdnHCl; CD; borate 10 mM

Chain of Phospholipase A2 wild type, P00593 (P00593 whole entry): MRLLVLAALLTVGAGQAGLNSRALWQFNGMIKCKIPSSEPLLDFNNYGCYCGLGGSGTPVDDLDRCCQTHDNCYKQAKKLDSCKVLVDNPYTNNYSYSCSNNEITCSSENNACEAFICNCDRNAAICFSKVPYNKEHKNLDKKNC

Phospholipase A2 wild type, P00593
denaturant m value: 1.47 kcal/mol/M
denaturant midpoint (higher = more stable): 6.9 M
unfolding free energy: 9.5 kcal/mol
